These results are taken from the supplement of paper PMC7125110.

B1: glmS ribozyme (parent)
chain: AUAAAAGCGCCAGAACUACAGAAAUGUAGUUGACGAGGAGGAGGUUUAUCGAAUUUUCGGCGGAUGCCUCCAAA

Details in all cases: with glucosamine-6-phosphate
In data set [1] the parent is B1. The data set is described as follows: kcat; higher = faster cleavage; RNA array. Summed up: (§1)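 A hybridised Cy3 probe tracked barcoded ribozyme variants, transcribed in situ by E. coli RNA polymerase on sequenced MiSeq chips, at 37 °C. The variants received 40 μM to 10 mM glucosamine-6-phosphate in HEPES/KCl/Mg(OAc)2 buffer. kobs came from decay fits and kcat and KM from weighted Michaelis–Menten fits.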

The variants in data set [2] derive from B1. In words: self-cleavage kobs at 160 uM GlcN6P; higher = faster cleavage; RNA array. A digest of the protocol: as §1
The variants in data set [3] derive from B1. The data set is described as follows: self-cleavage kobs at 2500 uM GlcN6P; higher = faster cleavage; RNA array. A digest of the protocol: as §1
In data set [4] the parent is B1. The data set is described as follows: KM; higher = weaker cofactor use; RNA array. Summed up:
as §1

Data set [5] covers variants of B1. The data set is described as follows: self-cleavage kobs at 640 uM GlcN6P; higher = faster cleavage; RNA array. Summed up: as §1
Variants of B1 are the subject of data set [6]. In words: self-cleavage kobs at 10000 uM GlcN6P; higher = faster cleavage; RNA array. A digest of the protocol:
as §1

Variants of B1 are the subject of data set [7]. In words: self-cleavage kobs at 40 uM GlcN6P; higher = faster cleavage; RNA array. A digest of the protocol:
as §1

± gives the standard error. For some of these results: This sample holds only a part of the variants without activity. Where only a bound is given, the exact number is not on record here.

The kcat is the number of substrate molecules converted per active site and unit of time at saturation. For C50G U65G, the kcat in data set [1] was 5.8e-05 ± 2.4e-05 s⁻¹. Besides, the “self-cleavage kobs at 160 uM GlcN6P” value in data set [2] amounted to 4.97e-05 ± 1.7e-05 s⁻¹. Besides, in data set [3], the “self-cleavage kobs at 2500 uM GlcN6P” value stood at 7.28e-05 ± 2.4e-05 s⁻¹.
For orientation: KM means the concentration of substrate that gives half-maximal velocity. Take G13U C16G: in data set [1], the kcat stood at 0.000981 ± 0.00012 s⁻¹. Further, in data set [4], the Michaelis-Menten constant (KM) was 5.17 ± 0.95 mM. Moreover, the “self-cleavage kobs at 640 uM GlcN6P” value in data set [5] turned out to be 0.000112 ± 1.7e-05 s⁻¹. In addition, the “self-cleavage kobs at 2500 uM GlcN6P” value in data set [3] turned out to be 0.000305 ± 6e-05 s⁻¹. Besides, the “self-cleavage kobs at 10000 uM GlcN6P” value in data set [6] was determined as 0.000653 ± 0.0001 s⁻¹.
For U57C G62U C70A, the “self-cleavage kobs at 40 uM GlcN6P” value in data set [7] was under 1e-05 s⁻¹.
Consider G9U G13A A36U G38A U65G, for which, in data set [7], the “self-cleavage kobs at 40 uM GlcN6P” value was under 1e-05 s⁻¹. Moreover, the “self-cleavage kobs at 10000 uM GlcN6P” value in data set [6] was under 1e-05 s⁻¹.
Turning to A36U C58G C70A, the “self-cleavage kobs at 40 uM GlcN6P” value in data set [7] is 8.19e-05 ± 2.5e-05 s⁻¹. Also, in data set [2], the “self-cleavage kobs at 160 uM GlcN6P” value came to 0.000111 ± 3.1e-05 s⁻¹. Moreover, in data set [3], the “self-cleavage kobs at 2500 uM GlcN6P” value worked out at 4.59e-05 ± 2.3e-05 s⁻¹. In addition, in data set [6], the “self-cleavage kobs at 10000 uM GlcN6P” value was determined as 5.18e-05 ± 1.5e-05 s⁻¹.
With C8A C71G, the kcat in data set [1] is 1.09e-05 ± 3.7e-06 s⁻¹.
Regarding A6U C11G, the KM in data set [4] came out at 1.37 ± 0.46 mM.
C10A G59C: the “self-cleavage kobs at 40 uM GlcN6P” value in data set [7] was under 1e-05 s⁻¹. Besides, the “self-cleavage kobs at 160 uM GlcN6P” value in data set [2] was under 1e-05 s⁻¹. In data set [5], the “self-cleavage kobs at 640 uM GlcN6P” value is under 1e-05 s⁻¹. The “self-cleavage kobs at 2500 uM GlcN6P” value in data set [3] is under 1e-05 s⁻¹. The “self-cleavage kobs at 10000 uM GlcN6P” value in data set [6] was under 1e-05 s⁻¹.
Turning to G9A G35U, the “self-cleavage kobs at 40 uM GlcN6P” value in data set [7] was under 1e-05 s⁻¹. Further, in data set [2], the “self-cleavage kobs at 160 uM GlcN6P” value was under 1e-05 s⁻¹. Moreover, the “self-cleavage kobs at 640 uM GlcN6P” value in data set [5] was under 1e-05 s⁻¹.
Consider G32C G37C C58U, for which the “self-cleavage kobs at 40 uM GlcN6P” value in data set [7] was under 1e-05 s⁻¹.
Still for that read-out and setting: the same measure for G35A G41A A48G C61U: under 1e-05 s⁻¹.
Take A15C G38U: in data set [4], the KM came out at 0.0677 ± 0.027 mM.
For A6C A14C U45G U57C, the “self-cleavage kobs at 40 uM GlcN6P” value in data set [7] was under 1e-05 s⁻¹. In data set [6], the “self-cleavage kobs at 10000 uM GlcN6P” value was under 1e-05 s⁻¹.
Take U45A C70G: the “self-cleavage kobs at 40 uM GlcN6P” value in data set [7] was determined as 0.000107 ± 4.1e-05 s⁻¹. In data set [2], the “self-cleavage kobs at 160 uM GlcN6P” value is 0.000105 ± 3.6e-05 s⁻¹. In addition, the “self-cleavage kobs at 640 uM GlcN6P” value in data set [5] turned out to be 0.000198 ± 7.9e-05 s⁻¹. Besides, the “self-cleavage kobs at 2500 uM GlcN6P” value in data set [3] stood at 0.00053 ± 0.00019 s⁻¹. For the same variant, in data set [6], the “self-cleavage kobs at 10000 uM GlcN6P” value came to 0.000826 ± 0.00032 s⁻¹.
Regarding U49G C58A, the kcat in data set [1] was 3.25e-05 ± 8.4e-06 s⁻¹. The KM in data set [4] was determined as 6.15 ± 2.7 mM. For the same variant, the “self-cleavage kobs at 40 uM GlcN6P” value in data set [7] was under 1e-05 s⁻¹.
As to A6U G32C G59A, the “self-cleavage kobs at 40 uM GlcN6P” value in data set [7] was under 1e-05 s⁻¹. Also, in data set [6], the “self-cleavage kobs at 10000 uM GlcN6P” value was under 1e-05 s⁻¹.
For the variant A15U A33C A36C G37U G40C C58U, in data set [7], the “self-cleavage kobs at 40 uM GlcN6P” value was under 1e-05 s⁻¹. Moreover, in data set [6], the “self-cleavage kobs at 10000 uM GlcN6P” value is under 1e-05 s⁻¹.
In the case of G7A C50U, the “self-cleavage kobs at 40 uM GlcN6P” value in data set [7] was under 1e-05 s⁻¹. The “self-cleavage kobs at 160 uM GlcN6P” value in data set [2] was under 1e-05 s⁻¹. Besides, in data set [5], the “self-cleavage kobs at 640 uM GlcN6P” value was under 1e-05 s⁻¹. In addition, the “self-cleavage kobs at 2500 uM GlcN6P” value in data set [3] was under 1e-05 s⁻¹. For the same variant, in data set [6], the “self-cleavage kobs at 10000 uM GlcN6P” value was under 1e-05 s⁻¹.
As for G29C U30C, the “self-cleavage kobs at 40 uM GlcN6P” value in data set [7] is under 1e-05 s⁻¹. Besides, the “self-cleavage kobs at 640 uM GlcN6P” value in data set [5] is under 1e-05 s⁻¹.
With G32A A64C, in data set [1], the kcat came out at 1.13e-05 ± 9e-07 s⁻¹. Also, the KM in data set [4] amounted to 1.76 ± 0.49 mM.
On to G37A U65G, for which the kcat in data set [1] is 0.000263 ± 1.3e-05 s⁻¹. Further, the KM in data set [4] amounted to 3.87 ± 0.39 mM. In data set [5], the “self-cleavage kobs at 640 uM GlcN6P” value worked out at 4.13e-05 ± 1.5e-05 s⁻¹. For the same variant, the “self-cleavage kobs at 2500 uM GlcN6P” value in data set [3] came out at 0.000102 ± 1.2e-05 s⁻¹. Moreover, the “self-cleavage kobs at 10000 uM GlcN6P” value in data set [6] came out at 0.000191 ± 2.3e-05 s⁻¹.
For A15U G29A, the kcat in data set [1] stood at 0.00194 ± 0.00084 s⁻¹. The “self-cleavage kobs at 160 uM GlcN6P” value in data set [2] worked out at 7.32e-05 ± 1.6e-05 s⁻¹. Further, the “self-cleavage kobs at 640 uM GlcN6P” value in data set [5] came to 0.000218 ± 4.3e-05 s⁻¹. Also, in data set [3], the “self-cleavage kobs at 2500 uM GlcN6P” value worked out at 0.00039 ± 0.0001 s⁻¹. The “self-cleavage kobs at 10000 uM GlcN6P” value in data set [6] turned out to be 0.00142 ± 0.0002 s⁻¹.
Consider G13U G41A, for which the kcat in data set [1] is 5.17e-05 ± 3.4e-06 s⁻¹. Further, in data set [4], the KM was found to be 3.54 ± 0.6 mM. Also, in data set [3], the “self-cleavage kobs at 2500 uM GlcN6P” value came to 2.17e-05 ± 8.2e-06 s⁻¹. Besides, the “self-cleavage kobs at 10000 uM GlcN6P” value in data set [6] stood at 3.81e-05 ± 9.2e-06 s⁻¹.
As to G9A A12C, the kcat in data set [1] is under 1e-05 s⁻¹. The “self-cleavage kobs at 640 uM GlcN6P” value in data set [5] was under 1e-05 s⁻¹.
